From patent US20110294227A1

Experiments:
Experiment in all cases: DELFIA Xpress PlGF sandwich immunoassay; tested substance at 5000 pg/mL
[1] = biological target: PlGF-3 (non-glycosylated), purified recombinant placental growth factor isoform 3 (human) (UniProt P49763)
[2] = biological target: PlGF-2 (glycosylated), purified recombinant placental growth factor isoform 2 (human)
[3] = biological target: PlGF-1 (glycosylated), purified recombinant placental growth factor isoform 1 (human) (UniProt P49763)

Chain of PlGF-2 (glycosylated), purified recombinant placental growth factor isoform 2 (human) (chain, as listed by the source limits assumed): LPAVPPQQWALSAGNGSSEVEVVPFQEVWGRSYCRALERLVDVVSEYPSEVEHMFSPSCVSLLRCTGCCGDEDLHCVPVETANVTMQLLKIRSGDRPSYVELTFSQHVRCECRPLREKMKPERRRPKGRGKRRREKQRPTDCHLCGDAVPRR

Observed cross-reactivity (%) [1]: 5%
Observed cross-reactivity (%) [2]: 16%
Observed cross-reactivity (%) [3]: 33%
Substance: P1GF-1 antibody provided with the DELFIA Xpress kit (commercial DELFIA Xpress P1GF method, PerkinElmer)
